In paper PMC4894940, “The function of the two-pore channel TPC1 depends on dimerization of its carboxy-terminal helix” (Cellular and Molecular Life Sciences: CMLS, 2016):
Numbering of substitutions follows the chain as printed. Numbers in names are those of the source.

Experiments:
[1] = tested on: excised cytosolic side-out vacuolar membrane patches of tpc1-2 cells; assay: Excised cytosolic side-out patch recordings of TPC1 variants; format: cell-based, Arabidopsis thaliana; details: for macroscopic currents in excised patches: tpc1-2 cells; for current remaining following reduction of Ca2+ from 1 mM to 200 µM: at 107 mV, Ca2+ reduced from 1 mM to 200 µM (n = 3–7)
Method: (§1) Expression of GFP-fusion proteins for electrophysiological measurements or confocal microscopy was performed in A. thaliana tpc1-2 mesophyll protoplasts as described. Briefly, leaves were enzymatically digested to release mesophyll protoplasts, which were then transformed by the polyethylene glycol method. Protoplasts were used for electrophysiological measurements and subcellular localization of GFP fluorescence 2–4 days after transformation.
(§2) Patch-clamp experiments were performed on transformed vacuoles harboring two-pore channels as identified by GFP fluorescence. The pipette (luminal) solution consisted of 100 mM K-gluconate, 2 mM MgCl2, 10 mM EGTA, 10 mM MES, pH 5.5/Tris. The bath (cytosolic) solution contained 50 mM K-gluconate, 1 mM CaCl2, 1 mM MgCl2, 2 mM DTT, 10 mM HEPES, pH 7.5/Tris. Solutions were adjusted to 430 mosmol/kg by adding D-sorbitol. For analysis of the TPC1-S706 mutants two further calcium concentrations of the bath solution were used in which 1 mM CaCl2 was substituted by 0.2 mM or 0.05 mM CaCl2, respectively. Competition assays using the CTH peptide were performed on endogenous TPC1 channels in vacuoles isolated from Col-0 plants. Peptides were dissolved at 10 mM in bath solution supplemented with 1 % DMSO and 0.1 % pluronic, and diluted >600-fold for application in patch-clamp recordings. Currents were recorded either in the whole-vacuolar or cytosolic side-out configuration of the patch-clamp technique, using an EPC10 amplifier and the program PULSE (HEKA electronics, Lambrecht, Germany). Recordings and data analysis were performed as described earlier. Relative open probabilities (P o) were determined from tail currents at −53 mV, following pulses to the different test voltages. Tail currents were normalized to the maximum values at 1 mM Ca^2+, plotted as a function of the applied test voltage, and fitted according to the Boltzmann equation: PO=A/1+exp^zF/RT·(Vo-V) where V o and z are parameters for the voltage at half-maximum open probability and the apparent number of gating charges, respectively, and A describes the maximum conductance that is reached under the experimental conditions.

[2] = tested on: slow vacuolar (SV) currents in tpc1-2 vacuoles; assay: Whole-vacuolar patch-clamp of TPC1 variants (SV currents); format: cell-based, Arabidopsis thaliana; details: for whole-vacuolar SV currents: GFP-fusion in tpc1-2 vacuoles, 1 mM CaCl2 bath, pH 7.5; for reduction of whole-vacuolar current amplitude: relative to TPC1 wild type
Method: as §1, §2

[3] = tested on: TPC1 subunits co-expressed in Nicotiana benthamiana leaves; assay: Bimolecular fluorescence complementation (Split Venus BiFC); format: cell-based; details: N. benthamiana leaves, plate reader and confocal
Method: For BiFC analyses the gateway entry vector pENTR-D-TOPO and the destination vectors pDEST–^GWVYCE and pDEST–^GWVYNE were used for C-terminal fusion of the Venus C- and N-terminus, respectively, and pDEST–VYCE(R)^GW and pDEST–VYNE(R)^GW for N-terminal tagging.
BiFC studies were performed as described using a Split Venus system. The Agrobacterium strain C58C1 [42] harboring the plasmid of interest and the helper strain p19 [43] were grown in LB medium supplemented with 100 µg/ml Kanamycin at 29 °C overnight. The cultures were brought to an optical density (OD600) of 1.0 in infiltration buffer (10 mM MES, 10 mM MgCl2, 100 µM acetosyringone, pH 5.7/KOH) and the combinations to test for co-expression mixed at equal amounts. The p19 helper strain (OD600 = 1.0) was added to these mixtures in a 1:1 ratio. Suspensions were incubated for 2 h before infiltration into the abaxial side of 6-week-old N. benthamiana leaves. Each leaf was infiltrated with several plasmid combinations and a positive control (TPC1/pDEST-^GWVYCE and TPC1/pDEST-^GWVYNE) as well as a negative control (p19 alone) at separated areas to monitor comparability of the transient expression and to define background fluorescence.
For fluorescence quantification leaf disks (Ø 6 mm) were cut out of the infiltrated areas with a cork borer 2.5 day after infiltration. Leaf disks were placed upside-down in a black 96-well plate prefilled with 70 µl H2O per well to minimize dehydration effects. Fluorescence was measured with a plate-reader (Infinite F200, Tecan) with an excitation wavelength of 485 ± 20 nm and an emission wavelength of 525 ± 25 nm.

[4] = tested on: tonoplast; assay: Confocal localization of GFP-fusions in tpc1-2 mesophyll protoplasts; format: cell-based, Arabidopsis thaliana; details: GFP-fusion in tpc1-2 mesophyll protoplasts
Method: as §1
Fluorescence signals were detected and documented with a TCS SP2 confocal laser scanning microscope and the Leica Confocal Software (Leica Microsystems). A 488 nm Argon laser was used for excitation of GFP and of the auto-fluorescence of chlorophyll. GFP-signals were detected from 500 to 556 nm and chlorophyll signals from 675 to 767 nm. Venus was excited with a […] and detected in the range from 520 to 556 nm, the corresponding chlorophyll signals were detected from 637 to 736 nm. Images were processed with Photoshop (Adobe Systems).

B1: TPC1-3LA: leucines L714, 715, 719 of TPC1 replaced by alanine (protein, UniProt Q94KI8 1-733, looked up, variant L714A L715A L719A)
Two pore calcium channel …: MEDPLIGRDSLGGGGTDRVRRSEAITHGTPFQKAAALVDLAEDGIGLPVEILDQSSFGESARYYFIFTRLDLIWSLNYFALLFLNFFEQPLWCEKNPKPSCKDRDYYYLGELPYLTNAESIIYEVITLAILLVHTFFPISYEGSRIFWTSRLNLVKVACVVILFVDVLVDFLYLSPLAFDFLPFRIAPYVRVIIFILSIRELRDTLVLLSGMLGTYLNILALWMLFLLFASWIAFVMFEDTQQGLTVFTSYGATLYQMFILFTTSNNPDVWIPAYKSSRWSSVFFVLYVLIGVYFVTNLILAVVYDSFKEQLAKQVSGMDQMKRRMLEKAFGLIDSDKNGEIDKNQCIKLFEQLTNYRTLPKISKEEFGLIFDELDDTRDFKINKDEFADLCQAIALRFQKEEVPSLFEHFPQIYHSALSQQLRAFVRSPNFGYAISFILIINFIAVVVETTLDIEESSAQKPWQVAEFVFGWIYVLEMALKIYTYGFENYWREGANRFDFLVTWVIVIGETATFITPDENTFFSNGEWIRYLLLARMLRLIRLLMNVQRYRAFIATFITLIPSLMPYLGTIFCVLCIYCSIGVQVFGGLVNAGNKKLFETELAEDDYLLFNFNDYPNGMVTLFNLLVMGNWQVWMESYKDLTGTWWSITYFVSFYVITILLLLNLVVAFVLEAFFTELDLEEEEKCQGQDSQEKRNRRRSAGSKSRSQRVDTAAHHMAGDELSKPECSTSDT
modifications: C-terminal GFP
notes: leucines L714, 715, 719 of TPC1 replaced by alanine
- single-channel conductance ([1]; excised cytosolic side-out patch, tpc1-2 cell, linear fit): 58 pS
- macroscopic currents in excised patches [1]: no macroscopic currents were resolved
- whole-vacuolar SV currents ([2]; whole-vacuolar): loss of SV currents to a similar extent as TPC1-3LP

B2: TPC1-S706A (protein, UniProt Q94KI8 1-733, looked up, variant S706A)
Two pore calcium channel …: B1 Two pore calcium channel … with S706A, A714L, A715L, A719L
- current remaining following reduction of Ca2+ from 1 mM to 200 µM [1]: 28 ± 3%
- reduction of whole-vacuolar current amplitude [2]: 53%

B3: TPC1-3LP: substitution of three leucines (L714, 715, and 719) by prolines (protein, UniProt Q94KI8 1-733, looked up, variant L714P L715P L719P)
Two pore calcium channel …: B1 Two pore calcium channel … with A714P, A715P, A719P
modifications: C-terminal GFP
notes: substitution of three leucines (L714, 715, and 719) by prolines
- BiFC signal [3]: reduced compared to the wild type
- macroscopic currents in excised patches [1]: no macroscopic currents were resolved
- residual whole-vacuolar current amplitude (% of wild type amplitude) ([2]; whole-vacuolar, 1 mM CaCl2, relative to wild type, results section): about 7%

B4: TPC1: wild type Arabidopsis two-pore channel TPC1 expressed as GFP-fusion in tpc1-2 background (protein)
chain: B1 Two pore calcium channel … with A714L, A715L, A719L
modifications: left off: Venus C-terminal half (VC, one copy) or Venus N-terminal half (VN, the other copy), C-terminal, kept
notes: wild type Arabidopsis two-pore channel TPC1 expressed as GFP-fusion in tpc1-2 background
- BiFC signal [3]: BiFC signals from wild type channels could be observed
- current remaining following reduction of Ca2+ from 1 mM to 200 µM [1]: 53 ± 10%

B5: TPC1-S706D (protein, UniProt Q94KI8 1-733, looked up, variant S706D)
Two pore calcium channel …: B1 Two pore calcium channel … with S706D, A714L, A715L, A719L
- current remaining following reduction of Ca2+ from 1 mM to 200 µM [1]: 24 ± 4%
- reduction of whole-vacuolar current amplitude [2]: 58%

B6: TPC1ΔC29: truncated TPC1 containing residues 1–704 (protein, UniProt Q94KI8 1-704, looked up, fragment)
chain: MEDPLIGRDSLGGGGTDRVRRSEAITHGTPFQKAAALVDLAEDGIGLPVEILDQSSFGESARYYFIFTRLDLIWSLNYFALLFLNFFEQPLWCEKNPKPSCKDRDYYYLGELPYLTNAESIIYEVITLAILLVHTFFPISYEGSRIFWTSRLNLVKVACVVILFVDVLVDFLYLSPLAFDFLPFRIAPYVRVIIFILSIRELRDTLVLLSGMLGTYLNILALWMLFLLFASWIAFVMFEDTQQGLTVFTSYGATLYQMFILFTTSNNPDVWIPAYKSSRWSSVFFVLYVLIGVYFVTNLILAVVYDSFKEQLAKQVSGMDQMKRRMLEKAFGLIDSDKNGEIDKNQCIKLFEQLTNYRTLPKISKEEFGLIFDELDDTRDFKINKDEFADLCQAIALRFQKEEVPSLFEHFPQIYHSALSQQLRAFVRSPNFGYAISFILIINFIAVVVETTLDIEESSAQKPWQVAEFVFGWIYVLEMALKIYTYGFENYWREGANRFDFLVTWVIVIGETATFITPDENTFFSNGEWIRYLLLARMLRLIRLLMNVQRYRAFIATFITLIPSLMPYLGTIFCVLCIYCSIGVQVFGGLVNAGNKKLFETELAEDDYLLFNFNDYPNGMVTLFNLLVMGNWQVWMESYKDLTGTWWSITYFVSFYVITILLLLNLVVAFVLEAFFTELDLEEEEKCQGQDSQEKRNRRRSAGS
modifications: C-terminal GFP
- subcellular localization of GFP-fusion [4]: localized in the tonoplast
- whole-vacuolar SV currents ([2]; whole-vacuolar): stayed silent

B7: TPC1ΔC8: truncated TPC1 containing residues 1–725 (protein, UniProt Q94KI8 1-725, looked up, fragment)
chain: MEDPLIGRDSLGGGGTDRVRRSEAITHGTPFQKAAALVDLAEDGIGLPVEILDQSSFGESARYYFIFTRLDLIWSLNYFALLFLNFFEQPLWCEKNPKPSCKDRDYYYLGELPYLTNAESIIYEVITLAILLVHTFFPISYEGSRIFWTSRLNLVKVACVVILFVDVLVDFLYLSPLAFDFLPFRIAPYVRVIIFILSIRELRDTLVLLSGMLGTYLNILALWMLFLLFASWIAFVMFEDTQQGLTVFTSYGATLYQMFILFTTSNNPDVWIPAYKSSRWSSVFFVLYVLIGVYFVTNLILAVVYDSFKEQLAKQVSGMDQMKRRMLEKAFGLIDSDKNGEIDKNQCIKLFEQLTNYRTLPKISKEEFGLIFDELDDTRDFKINKDEFADLCQAIALRFQKEEVPSLFEHFPQIYHSALSQQLRAFVRSPNFGYAISFILIINFIAVVVETTLDIEESSAQKPWQVAEFVFGWIYVLEMALKIYTYGFENYWREGANRFDFLVTWVIVIGETATFITPDENTFFSNGEWIRYLLLARMLRLIRLLMNVQRYRAFIATFITLIPSLMPYLGTIFCVLCIYCSIGVQVFGGLVNAGNKKLFETELAEDDYLLFNFNDYPNGMVTLFNLLVMGNWQVWMESYKDLTGTWWSITYFVSFYVITILLLLNLVVAFVLEAFFTELDLEEEEKCQGQDSQEKRNRRRSAGSKSRSQRVDTLLHHMLGDELSK
modifications: GFP fusion
- subcellular localization of GFP-fusion [4]: localized in the tonoplast
- whole-vacuolar SV currents ([2]; whole-vacuolar): wild type like
